Reference: the supplement of paper PMC10065799, “High-throughput profiling of sequence recognition by tyrosine kinases and SH2 domains using bacterial peptide display” (eLife, 2023)

Assays:
[1] = molecular target: c-Src SH2; experiment: SH2 binding enrichment of the phosphorylated peptide, bacterial display (enrichment ratio); higher = better substrate or ligand; peptides without Tyr show the background
[2] = molecular target: SHP2-C SH2; experiment: as above
[3] = molecular target: Grb2 SH2 (UniProt P62993); experiment: as above
Grb2 SH2, sequence (P62993 whole entry, looked up): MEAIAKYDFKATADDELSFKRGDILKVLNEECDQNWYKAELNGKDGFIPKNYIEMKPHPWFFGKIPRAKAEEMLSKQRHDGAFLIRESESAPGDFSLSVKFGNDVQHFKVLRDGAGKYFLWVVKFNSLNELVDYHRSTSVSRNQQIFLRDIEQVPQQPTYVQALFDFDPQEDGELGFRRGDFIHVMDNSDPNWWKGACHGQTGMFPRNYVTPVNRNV

[4] = molecular target: FGFR1 (UniProt P11362); experiment: phosphorylation enrichment, bacterial display (enrichment ratio); higher = better substrate or ligand; peptides without Tyr show the background
[5] = molecular target: Fyn (UniProt P06241); experiment: as above
[6] = molecular target: MERTK (UniProt Q12866); experiment: as above
MERTK, sequence (Q12866 whole entry, looked up): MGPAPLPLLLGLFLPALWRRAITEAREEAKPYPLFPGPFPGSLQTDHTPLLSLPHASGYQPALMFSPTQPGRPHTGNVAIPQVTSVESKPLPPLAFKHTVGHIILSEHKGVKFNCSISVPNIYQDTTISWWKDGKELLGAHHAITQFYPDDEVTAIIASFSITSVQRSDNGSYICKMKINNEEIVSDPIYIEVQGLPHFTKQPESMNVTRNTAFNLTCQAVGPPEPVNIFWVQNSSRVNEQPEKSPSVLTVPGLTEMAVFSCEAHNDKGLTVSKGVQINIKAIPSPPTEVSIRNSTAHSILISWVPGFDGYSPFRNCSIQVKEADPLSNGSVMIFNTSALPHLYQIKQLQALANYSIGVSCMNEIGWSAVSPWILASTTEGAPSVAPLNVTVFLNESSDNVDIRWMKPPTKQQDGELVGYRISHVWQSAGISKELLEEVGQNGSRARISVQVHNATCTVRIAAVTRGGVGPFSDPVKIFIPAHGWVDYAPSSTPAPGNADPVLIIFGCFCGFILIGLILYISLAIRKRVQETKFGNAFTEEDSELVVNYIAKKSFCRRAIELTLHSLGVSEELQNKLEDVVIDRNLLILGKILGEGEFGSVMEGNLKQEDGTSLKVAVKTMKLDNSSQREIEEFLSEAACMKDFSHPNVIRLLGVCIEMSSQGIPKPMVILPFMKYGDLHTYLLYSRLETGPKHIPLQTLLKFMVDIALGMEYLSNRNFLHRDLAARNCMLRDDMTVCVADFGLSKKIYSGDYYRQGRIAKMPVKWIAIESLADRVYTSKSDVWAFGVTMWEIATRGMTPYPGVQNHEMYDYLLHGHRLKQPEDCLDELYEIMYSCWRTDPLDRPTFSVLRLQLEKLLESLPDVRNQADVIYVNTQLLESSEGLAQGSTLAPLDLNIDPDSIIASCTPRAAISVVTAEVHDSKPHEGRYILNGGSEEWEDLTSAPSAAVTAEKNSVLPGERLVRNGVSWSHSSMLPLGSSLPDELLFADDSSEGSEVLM

[7] = test system: c-Src; experiment: as above
[8] = molecular target: Jak2 (UniProt O60674); experiment: as above
Jak2, sequence (O60674 whole entry, looked up): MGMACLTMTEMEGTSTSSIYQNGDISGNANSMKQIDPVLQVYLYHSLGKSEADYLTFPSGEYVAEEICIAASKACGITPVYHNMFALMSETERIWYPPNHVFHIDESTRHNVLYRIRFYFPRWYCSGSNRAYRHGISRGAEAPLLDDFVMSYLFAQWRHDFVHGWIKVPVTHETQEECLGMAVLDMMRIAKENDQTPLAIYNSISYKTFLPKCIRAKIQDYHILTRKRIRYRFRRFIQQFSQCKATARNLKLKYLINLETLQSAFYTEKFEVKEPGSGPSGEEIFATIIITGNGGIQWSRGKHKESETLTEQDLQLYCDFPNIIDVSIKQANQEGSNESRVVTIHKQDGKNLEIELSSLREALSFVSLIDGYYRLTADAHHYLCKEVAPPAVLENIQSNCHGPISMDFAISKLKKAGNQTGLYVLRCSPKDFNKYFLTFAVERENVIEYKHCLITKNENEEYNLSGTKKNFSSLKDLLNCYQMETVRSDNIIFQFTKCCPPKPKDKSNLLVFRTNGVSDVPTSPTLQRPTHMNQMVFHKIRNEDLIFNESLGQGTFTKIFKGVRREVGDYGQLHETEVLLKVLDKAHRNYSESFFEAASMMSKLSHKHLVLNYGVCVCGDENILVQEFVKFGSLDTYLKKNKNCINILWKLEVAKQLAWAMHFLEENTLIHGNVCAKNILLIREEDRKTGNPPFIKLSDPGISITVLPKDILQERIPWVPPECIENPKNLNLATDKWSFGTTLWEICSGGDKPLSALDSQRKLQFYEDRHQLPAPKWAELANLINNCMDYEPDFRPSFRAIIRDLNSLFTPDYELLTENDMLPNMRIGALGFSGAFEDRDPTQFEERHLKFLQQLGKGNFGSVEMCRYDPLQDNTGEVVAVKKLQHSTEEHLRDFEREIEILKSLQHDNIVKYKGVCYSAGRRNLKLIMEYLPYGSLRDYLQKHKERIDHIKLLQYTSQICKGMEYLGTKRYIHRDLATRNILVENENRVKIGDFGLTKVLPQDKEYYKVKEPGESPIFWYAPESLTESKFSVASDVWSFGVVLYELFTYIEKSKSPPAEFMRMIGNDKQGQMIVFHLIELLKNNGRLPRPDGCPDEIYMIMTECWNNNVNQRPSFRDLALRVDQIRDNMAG

[9] = molecular target: EPHB2 (UniProt P29323); experiment: as above
EPHB2, sequence (P29323 whole entry, looked up): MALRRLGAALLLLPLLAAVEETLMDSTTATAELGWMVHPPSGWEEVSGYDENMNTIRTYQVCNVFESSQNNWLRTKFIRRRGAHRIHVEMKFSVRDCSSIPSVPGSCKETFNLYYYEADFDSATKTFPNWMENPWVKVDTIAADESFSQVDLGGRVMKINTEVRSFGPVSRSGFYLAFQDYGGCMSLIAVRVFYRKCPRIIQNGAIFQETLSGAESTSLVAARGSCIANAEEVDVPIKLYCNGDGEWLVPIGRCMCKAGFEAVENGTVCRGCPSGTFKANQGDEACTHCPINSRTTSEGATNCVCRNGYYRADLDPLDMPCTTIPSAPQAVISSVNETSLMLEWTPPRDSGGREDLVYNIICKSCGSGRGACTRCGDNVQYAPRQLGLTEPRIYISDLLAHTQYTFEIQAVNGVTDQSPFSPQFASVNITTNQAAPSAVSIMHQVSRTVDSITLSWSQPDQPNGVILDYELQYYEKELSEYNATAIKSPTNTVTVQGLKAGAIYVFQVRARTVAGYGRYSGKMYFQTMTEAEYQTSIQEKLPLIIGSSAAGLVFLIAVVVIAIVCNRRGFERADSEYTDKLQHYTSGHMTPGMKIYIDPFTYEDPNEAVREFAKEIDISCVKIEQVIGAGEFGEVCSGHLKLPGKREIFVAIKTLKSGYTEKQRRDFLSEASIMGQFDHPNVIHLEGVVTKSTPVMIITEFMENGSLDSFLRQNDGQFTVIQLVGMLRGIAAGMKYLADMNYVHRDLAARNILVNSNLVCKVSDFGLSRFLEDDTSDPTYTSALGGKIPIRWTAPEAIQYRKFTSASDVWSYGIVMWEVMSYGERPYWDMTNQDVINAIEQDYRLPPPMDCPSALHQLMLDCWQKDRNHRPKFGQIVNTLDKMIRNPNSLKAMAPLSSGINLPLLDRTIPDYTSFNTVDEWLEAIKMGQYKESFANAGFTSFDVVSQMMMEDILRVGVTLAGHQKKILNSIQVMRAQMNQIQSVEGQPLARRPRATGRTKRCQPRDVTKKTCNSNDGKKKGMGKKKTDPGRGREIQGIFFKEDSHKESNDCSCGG

[10] = test system: AncSZ; experiment: as above
[11] = molecular target: EPHB1 (UniProt P54762); experiment: as above
[12] = test system: Fer (mouse); experiment: as above
[13] = molecular target: FGFR3 (UniProt P22607); experiment: as above
FGFR3, sequence (P22607 whole entry, looked up): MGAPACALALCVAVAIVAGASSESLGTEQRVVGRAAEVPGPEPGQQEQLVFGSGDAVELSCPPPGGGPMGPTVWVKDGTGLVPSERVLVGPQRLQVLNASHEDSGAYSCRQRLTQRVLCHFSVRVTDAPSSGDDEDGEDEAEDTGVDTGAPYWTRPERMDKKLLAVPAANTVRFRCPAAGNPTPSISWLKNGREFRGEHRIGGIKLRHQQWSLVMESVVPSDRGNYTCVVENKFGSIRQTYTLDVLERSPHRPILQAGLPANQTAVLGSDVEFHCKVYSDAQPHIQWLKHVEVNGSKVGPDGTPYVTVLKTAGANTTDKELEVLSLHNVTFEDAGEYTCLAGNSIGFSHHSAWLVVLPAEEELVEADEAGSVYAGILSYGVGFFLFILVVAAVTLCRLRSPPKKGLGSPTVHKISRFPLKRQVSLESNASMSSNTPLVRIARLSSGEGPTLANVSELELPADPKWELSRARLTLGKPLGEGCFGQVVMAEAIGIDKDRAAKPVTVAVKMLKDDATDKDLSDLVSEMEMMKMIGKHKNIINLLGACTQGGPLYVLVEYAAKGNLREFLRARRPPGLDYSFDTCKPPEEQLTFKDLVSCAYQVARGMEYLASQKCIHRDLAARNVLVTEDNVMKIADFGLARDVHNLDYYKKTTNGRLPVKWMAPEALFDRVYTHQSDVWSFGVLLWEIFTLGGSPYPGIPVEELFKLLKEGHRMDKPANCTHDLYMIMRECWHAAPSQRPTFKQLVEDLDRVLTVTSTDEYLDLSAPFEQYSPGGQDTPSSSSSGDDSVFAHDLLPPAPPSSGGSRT

[14] = molecular target: Fes (UniProt P07332); experiment: as above
Fes, sequence (P07332 whole entry, looked up): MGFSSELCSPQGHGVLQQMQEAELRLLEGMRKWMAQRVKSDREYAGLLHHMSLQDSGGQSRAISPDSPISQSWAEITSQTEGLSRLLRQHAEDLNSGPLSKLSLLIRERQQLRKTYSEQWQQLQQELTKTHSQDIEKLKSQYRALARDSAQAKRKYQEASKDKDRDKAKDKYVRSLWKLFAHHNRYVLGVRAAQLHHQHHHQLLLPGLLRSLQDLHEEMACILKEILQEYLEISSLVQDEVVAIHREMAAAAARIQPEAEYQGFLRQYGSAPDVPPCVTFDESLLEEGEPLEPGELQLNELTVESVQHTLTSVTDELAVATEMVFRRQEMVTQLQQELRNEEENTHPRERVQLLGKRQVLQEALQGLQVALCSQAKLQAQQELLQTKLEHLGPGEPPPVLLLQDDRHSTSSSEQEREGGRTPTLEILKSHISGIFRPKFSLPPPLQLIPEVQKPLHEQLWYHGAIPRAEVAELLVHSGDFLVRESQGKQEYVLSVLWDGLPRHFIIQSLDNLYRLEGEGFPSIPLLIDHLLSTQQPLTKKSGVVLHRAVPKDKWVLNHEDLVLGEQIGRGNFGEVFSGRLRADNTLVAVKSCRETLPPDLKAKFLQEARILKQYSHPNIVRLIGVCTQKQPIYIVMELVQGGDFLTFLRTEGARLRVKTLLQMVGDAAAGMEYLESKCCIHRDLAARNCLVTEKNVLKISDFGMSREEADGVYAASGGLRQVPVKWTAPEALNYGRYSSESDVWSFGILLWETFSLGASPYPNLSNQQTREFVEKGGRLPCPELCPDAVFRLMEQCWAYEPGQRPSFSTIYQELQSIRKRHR

[15] = molecular target: Hck (UniProt P08631); experiment: as above
[16] = test system: c-Abl (mouse); experiment: as above
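Wherever SH2 binding enrichment of the phosphorylated peptide, bacterial display is given: peptide library displayed on the E. coli surface as eCPX fusions, selected cells deep-sequenced, score is each peptide's frequency after selection divided by its frequency in the input.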
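Wherever phosphorylation enrichment, bacterial display is given: 11-residue human phosphosite peptides and single-mutation variants displayed on the E. coli surface, counted by deep sequencing, each peptide's frequency after selection divided by its frequency in the unselected input library; frequency after pTyr selection over input frequency; kinase dosed for 20-30% of maximal phosphorylation in three min.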

Sequence	SH2 binding enrichment [1]	SH2 binding enrichment [2]	SH2 binding enrichment [3]	phosphorylation enrichment [4]	phosphorylation enrichment [5]	phosphorylation enrichment [6]	phosphorylation enrichment [7]	phosphorylation enrichment [8]	phosphorylation enrichment [9]	phosphorylation enrichment [10]	phosphorylation enrichment [11]	phosphorylation enrichment [12]	phosphorylation enrichment [13]	phosphorylation enrichment [14]	phosphorylation enrichment [15]	phosphorylation enrichment [16]
QGIPRYHSQSP [FOXF1_Y331]	0.537	0.562	0.733	0.821	0.796	1.22	1.08	0.691	0.849	1.01	0.783	0.744	0.677	1.58	1.02	1.4
IGSQRYQLGVR [RB1_Y446_K447Q]	0.66	0.887	1.07	0.346	0.365	0.385	0.343	0.413	0.303	0.439	0.315	0.403	0.388	0.534	0.34	0.451
ECIEFYELDKK [PMM2_Y145_R141C]	0.805	0.662	1.11	0.569	0.501	0.485	0.999	0.977	0.596	1.22	0.579	0.589	0.776	1.13	0.572	0.825
RSSGGYEPRGR [FUS_Y239]	0.488	0.521	0.674	0.555	0.412	0.425	0.358	0.683	0.452	0.652	0.323	0.418	0.403	0.569	0.379	0.384
VTVLDYDKTGK [SYT1_Y365_I368T]	0.408	0.511	0.737	0.463	0.442	0.335	0.398	0.517	0.46	0.591	0.365	0.411	0.439	0.712	0.426	0.452
GMEIVYVFVKK [DNAI2_Y5_YF]	0.556	0.787	0.941	0.587	0.554	0.481	0.627	1.59	0.654	1.4	0.709	0.58	0.862	1.44	0.673	1.22
DNEYAYLKAII [HNF4A_Y288]	0.391	0.513	0.732	3.79	0.615	0.603	0.599	0.856	0.97	1.27	1.68	0.667	2.4	1.01	1.58	2.79
LERFIYNREEL [HLA-DPB1_Y59_F64L_YF]	0.703	0.85	1.2	0.666	1.19	0.694	2.42	1.54	0.734	1.5	0.698	0.669	0.75	1.3	1.5	1.11
VVLVSYVPSSQ [SH2B1_Y624]	0.95	1.4	1.51	0.506	0.452	0.424	0.336	0.751	0.454	0.784	0.557	0.388	0.703	0.874	0.433	0.614
VGTKRYMALEV [ACVRL1_Y375_P378L]	0.813	0.805	0.977	0.472	0.429	0.448	0.486	0.557	0.451	0.691	0.549	0.418	0.541	0.75	0.458	0.709
LENQTYFKSFE [AKAP9_Y2482]	0.569	0.518	0.978	0.956	1.08	0.81	0.579	1.13	1.24	1.59	1.24	0.67	0.903	1.33	1.22	0.872
GSERDYTYDEL [EIF2S2_Y174_E177D]	1.66	0.722	0.82	0.507	0.59	0.424	0.766	0.999	0.879	1.14	0.504	0.617	0.614	1.01	0.849	0.803
ERLWDYGMSSS [F8_Y1728]	0.597	0.742	0.779	0.433	0.415	0.399	0.419	0.778	0.578	0.971	0.612	0.483	0.742	1.06	0.459	0.767
LRVHSYKSMQH [DRC7_Y516_P521H]	0.841	1.18	0.881	0.533	0.954	0.896	1.06	1.42	0.772	1.4	0.911	0.949	0.69	0.883	0.634	1.13
DKATEYIQYVR [MAX_Y70_M74V]	0.517	1.27	0.94	0.506	0.535	0.425	0.493	0.763	0.582	0.983	0.519	0.43	0.507	0.976	0.552	0.582
IGMFSYVMLAS [GGCX_Y301]	0.424	0.604	0.841	0.598	0.444	0.477	0.512	1.57	0.611	1.21	0.649	0.562	0.851	1.56	0.548	0.997
RSSNTYTLMDV [ALCAM_Y298_T301M]	6.21	0.7	0.78	1.26	1.55	4.15	1.58	0.309	0.868	1.01	0.633	1.42	1.17	0.793	0.676	0.614

Sequence	SH2 binding enrichment [1]	SH2 binding enrichment [2]	SH2 binding enrichment [3]	phosphorylation enrichment [4]	phosphorylation enrichment [5]	phosphorylation enrichment [6]	phosphorylation enrichment [7]	phosphorylation enrichment [8]	phosphorylation enrichment [9]	phosphorylation enrichment [10]	phosphorylation enrichment [11]	phosphorylation enrichment [12]	phosphorylation enrichment [13]	phosphorylation enrichment [14]	phosphorylation enrichment [15]	phosphorylation enrichment [16]
FSEVRYMKEPF [HIPK4_Y170_V171M_YF]	0.547	0.646	0.863	0.451	0.379	0.32	0.388	0.741	0.459	0.677	0.473	0.36	0.48	0.821	0.438	0.66
HSKGIYYVQLE [MGAT4B_Y262_Q257H]	1.31	1.76	1.08	5.54	3.29	9.49	4.78	4.4	1.03	1.28	1.68	0.615	3.3	1.39	2.88	1.02
HDHFGYRQSVT [CD55_Y245_R240H_YF]	0.628	0.871	0.803	0.479	0.444	0.346	0.725	0.536	0.434	0.733	0.65	0.482	0.528	0.896	0.51	0.659
IGEGTSGVVYK [CDK2_Y15_Y15S]	0.361	0.562	0.639	0.299	0.28	0.274	0.29	0.494	0.319	0.574	0.374	0.339	0.426	0.616	0.306	0.5
RKTAKYLLKGE [CDH5_Y82_N79T]	0.461	0.709	0.861	1.04	0.598	0.832	0.535	0.628	0.54	0.71	0.915	0.878	0.704	0.644	0.672	1.1
GAAMLYYPSVS [GPR143_Y177]	0.765	0.608	0.776	4.07	0.747	4.88	1.11	2.6	1.66	0.763	1.5	0.63	3.51	0.783	1.46	0.941
KKFPDYIQIAR [SGMS2_Y59_M64R_YF]	0.825	0.884	1.13	4.29	0.432	0.421	0.488	1.15	0.649	0.848	3.85	0.399	2.26	0.713	0.478	0.657
KELAPYDENWF [RPS19_Y48]	0.767	0.685	0.957	0.563	0.506	0.421	0.458	1.06	0.618	1.2	0.506	0.53	0.664	1.12	0.517	0.597
FDDGKYVFVVT [RPS6KA3_Y488_YF]	0.382	0.531	0.626	0.632	0.493	0.474	0.507	1.46	0.545	1.38	0.652	0.513	0.911	1.49	0.572	0.995
LQFRNYQQLFD [MAN2A1_Y442_K440R]	1.78	0.947	0.689	0.857	1.08	0.789	1.03	2.42	0.928	2.02	1.42	0.65	1.41	2.25	0.771	1.3
AIGCEYSEINI [SIGLEC12_Y588_Y586C]	0.631	0.362	0.603	3.95	1.79	0.492	2.47	0.924	0.797	1.94	1.24	5.32	2.99	1.27	2.42	0.928
RLQEDYDHSFF [ESD_Y258_G257D_YF]	0.339	0.914	0.901	0.842	0.792	0.649	1.07	1.65	0.912	1.74	1.21	0.919	1.2	1.55	0.869	1.19
ATDLAYFLVRK [ASL_Y375_YF]	1.18	1.84	2.04	1.26	0.725	0.642	0.728	2.72	0.872	1.73	0.73	0.509	1.32	1.6	0.686	1.2
LRNIDYYRLDG [ATRX_Y2083]	0.775	11.9	0.874	13.1	3.96	0.851	3.35	6.17	0.776	1.3	1.07	0.499	8.11	1.58	1.16	0.815
IRTIDYRYTVC [IDS_Y497_W502C]	2.77	0.948	0.884	0.555	0.51	0.478	0.461	0.965	0.52	0.965	0.653	0.572	0.754	1.02	0.561	0.65
ERMKVYVPIGF [EPHX1_Y393_T396I]	0.556	0.909	0.76	0.412	1.13	0.478	0.907	0.597	0.497	0.67	0.623	0.425	0.538	0.742	0.622	0.543
